The values below come from patent publication US20080069777A1.

Assay [1] deals with whole LFA-1 in which the α subunit contains an I-domain in the high affinity locked open state, on cells (HA cells) (human) (UniProt P05107). As to the kind of experiment: inhibition of ICAM binding to HA cells, Guava analysis; second experiment; second experiment, second lot of D2-57 IgG.
Assay [2] has the same target. As to the kind of experiment: inhibition of ICAM binding to HA cells, Guava analysis; second experiment; second experiment, first lot of D2-57 IgG.
Assay [3] shares this target. Description: cell-based or functional assay.
Assay [4] has the same target. As to the kind of experiment: inhibition of ICAM binding to HA cells, Guava analysis; third experiment; third experiment.
Assay [5] shares this target. As to the kind of experiment: inhibition of ICAM binding to HA cells, Guava analysis; fourth experiment; fourth experiment.
The target is the same in assay [6]. Description: inhibition of ICAM binding to HA cells, Guava analysis; first experiment; first experiment.
The target in assay [7] is whole LFA-1 in which the α subunit contains an I-domain in the low affinity locked closed state, on cells (LA cells) (human) (UniProt P05107). As to the kind of experiment: phage ELISA, LA form of LFA-1, with Mg2+.
The target of assay [8] is whole LFA-1 in which the α subunit contains an I-domain in the high affinity locked open state, on cells (HA cells) (human) (UniProt P05107). As to the kind of experiment: ICAM-1 blocking assay on HA cells, soluble Fab, flow cytometry; ligand ICAM-1/SV-PE; soluble Fab, ICAM-1 blocking on HA cells, FACS.
Assay [9] shares this target. As to the kind of experiment: phage ELISA, HA form of LFA-1, with Mg2+; phage ELISA on HA cells, with Mg2+.
The target of assay [10] is whole LFA-1 in which the α subunit contains an I-domain in the low affinity locked closed state, on cells (LA cells) (human) (UniProt P05107). As to the kind of experiment: phage ELISA, LA form of LFA-1, without Mg2+.
Assay [11] deals with whole LFA-1 in which the α subunit contains an I-domain in the high affinity locked open state, on cells (HA cells) (human) (UniProt P05107). As to the kind of experiment: phage ELISA, HA form of LFA-1, without Mg2+; phage ELISA on HA cells, without Mg2+; signal at background.

B1: D2-57 IgG1 (antibody, V domains shown)
VH: EVQLLESGGGLVQPGGSLRLSCAASGFTFSRYVMWWVRQAPGKGLEWVSYIWPSGGNTYYADSVKGRFTISRDNSKNTLYLQMNSLRAEDTAVYYCASSYDFWSNAFDIWGQGTMVTVSS
VL: DIQMTQSPSSLSASVGDRVTITCRASQSIGSYLNWYQQKTGKAPKALIYAASSLQSGVPSRFSGSGSGTDFTLTISSLQLEDFATYYCQQSYSTPSFGQGTKVEIKR
With B1, the IC50 in [1] is 0.62 nM; in assay [2], 0.59 nM; in assay [4], 0.24 nM; in assay [5], 0.68 nM; in assay [6], 0.18 nM. Moreover, the IC50 for inhibition of HA cell binding to keratinocytes in [3] worked out at 1 nM.

B2: D2-57 Fab (Fab, V domains shown)
VH: B1 VH
VL: B1 VL
With B2, the ELISA signal (arbitrary units) in assay [7] is 0.13; in [9] it was 0.68; in assay [10], 0.07; in assay [11] it was 0.09. This molecule also came in with an IC50 in [8] of 11.5 nM.
